Source: patent US20190136256

Molecular target: T1, Myc tagged AN (AN-Myc)
T1 chain: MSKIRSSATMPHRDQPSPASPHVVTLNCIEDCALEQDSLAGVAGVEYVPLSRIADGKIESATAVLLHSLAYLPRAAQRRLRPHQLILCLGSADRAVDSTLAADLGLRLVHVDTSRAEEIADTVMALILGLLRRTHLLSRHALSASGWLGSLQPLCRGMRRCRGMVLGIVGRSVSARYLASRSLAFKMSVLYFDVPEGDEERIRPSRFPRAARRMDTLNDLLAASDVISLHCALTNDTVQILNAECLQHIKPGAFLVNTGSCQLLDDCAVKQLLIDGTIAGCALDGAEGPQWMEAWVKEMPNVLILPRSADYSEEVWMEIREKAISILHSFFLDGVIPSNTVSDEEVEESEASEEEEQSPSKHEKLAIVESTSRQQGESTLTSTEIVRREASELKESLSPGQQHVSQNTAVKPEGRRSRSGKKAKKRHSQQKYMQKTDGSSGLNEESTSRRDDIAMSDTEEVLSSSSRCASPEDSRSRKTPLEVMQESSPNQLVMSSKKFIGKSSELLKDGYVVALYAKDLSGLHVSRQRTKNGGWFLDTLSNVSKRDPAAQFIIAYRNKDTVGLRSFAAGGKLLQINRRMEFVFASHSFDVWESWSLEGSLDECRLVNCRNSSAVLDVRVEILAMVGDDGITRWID

B1: HA-tagged TDP1 (HA-TDP1) (protein)
chain: MAHSQVAYLIPLKADLKEDNSSPRITLSEGPNIIGRGNVSIVDKRLSRKHITIIVSTSGSASLSVDGTNPVVIRSSGDGERKKVKPSEEVSVCNDDLIELIPGHHFFKLVLLNGRAAKKARKAEDDVEAIRRFCPPNEKLPSTFRLLSVDALPDWANTSCVSINDVIEGDVVAAILSNYMVDIDWLMSACPKLANIPQVMVIHGEGDGRQEYIQRKKPANWILHKPRLPISFGTHHSKAIFLVYPRGVRVVVHTANLIHVDWNNKSQGLWMQDFPWKDDDKDPPKGCGFEGDLIDYLNVLKWPEFTANLPGRGNVKINAAFFKKFDYSDATVRLIASVPGYHTGFNLNKWGHMKLRTILQECIFDREFRRSPLIYQFSSLGSLDEKWLAEFGNSLSSGITEDKTPLGPGDSLIIWPTVEDVRCSLEGYAAGNAIPSPLKNVEKPFLKKYWARWKADHSARGRAMPHIKTFTRYNDQKIAWFLLTSSNLSKAAWGALQKNNSQLMIRSYELGVLFLPSPIKTQGCVFSCTESNPSVMKAKQETKDEVEKRSKLVTMTWQGDRDLPEIISLPVPYQLPPKPYSPEDVPWSWDRGYSKKDVYGQVWPR
- µChIP-qPCR: association of AN with MYB46 promoter: the chromatin association of AN with MYB46 promoter was significantly increased (p<0.05) in vivo when co-expressed with TDP1
